In the nanobody polyreactivity screen of Harvey et al. (2022):

assay: yeast display, Sf9 membrane polyspecificity reagent, FACS + sequencing; frameworks hold sequencing errors
In short: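 Genes from sorted yeast were amplified by colony PCR, read by MiSeq 2 × 250 sequencing and filtered on CDR length. These cells carried a synthetic nanobody library in Saccharomyces cerevisiae BJ5465 and were sorted by FACS into low and high (top ~1%) gates on anti-HA and streptavidin fluorescence. Polyreactivity is labelled according to the gate of origin.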

Q: For “QVQLVESGGGLVPARGSLRLSCAASGRIFRYYAMGWYRQAPGKERELVAAISGNGGRTSYADSVKGRFTISRDNAKITVSLQMTSLKPEDTAVYYCNAASVNGCRDFDYWGQGTQVTVSS”, which “polyreactivity (PSR sort gate)” value is on record?
A: high polyreactivity

Q: For “QVQLVESGGGLVPSGGSLRLSCAASGGIFYFNAMGWYRQAPGKERELVASITWSGGNTYYADSVKGRFTISRDNAKNTVSLQMNSLKPEDTAVYYSAADTQEYRPTYDYWGQGTQVTVSS”, which “polyreactivity (PSR sort gate)” value is on record?
A: low polyreactivity

Q: With “QVQLVESGGGLVQAAGSLLLSCAASGSTFYYYAMGWYRQAPRKDRELVAAISRGGGSTYYADSVKGRFTISRDNAKTTVYLQMNSLKPQDTAVYYCYVSRFDSWGQGTKVTVSS” as the sequence, how does the “polyreactivity (PSR sort gate)” value read?
A: high polyreactivity

Q: For “QVQLVESGGGLVQAAGSLRLICAASGRIFDVYAMGWYRPAPGKERELVAAITWSGTSTYYADSVKGRFTISRDNAKNTVYLQMNSLKPEDTAVYYCAAEVAYTDTEYFWYYYWGQGTQVTVSS”, which “polyreactivity (PSR sort gate)” value is on record?
A: high polyreactivity

Q: With “QVQLVESGGGLVQAAGSLRLSCAASGFIFRYNVMGWYRQAPGKERELVAAISTSGGRTYFADSEKGRFTISRDNAKNTGYLQMNSLKPEDTEVYYCNAVKSEGQKVRDGYYWGQGTQVTVSS” as the sequence, how does the “polyreactivity (PSR sort gate)” value read?
A: high polyreactivity

Q: Which “polyreactivity (PSR sort gate)” value does the source give for “QVQLVESGGGLVQAAGSLRLSCAASGLTFGGYPMGWYRQAPGKERELVAAISRSCGSTYYADSVKGRFTISRDNAKNTVYLQMNSLKPEDTAVSYCNAGRDTKYDYWGQGTQVTVSS” here?
A: low polyreactivity

Q: Which “polyreactivity (PSR sort gate)” value does the source give for “QVQLVESGGGLVQAAGSLRLSCAASGLTFRVNDMGWYRQAPGKERELVATISSGGSTYYADSVKGRFTISRDNAKNTVYLQMNSLKAVDTAVYYCATNSEGQESNSYYVWMGYWGQGTKVTVSS” here?
A: low polyreactivity

Q: Which “polyreactivity (PSR sort gate)” value does the source give for “QVQLVESGGGLVQAAGSLRLSCAASGRTFRAYAMGWYRQAPGKERELVAAISNRGTRTYYADSVKGRFTISRDNAKNTVYLQMNSLKPEDTAVYYCAAGNRVNRFDYWGQGTQVTVSS” here?
A: high polyreactivity

Q: Which “polyreactivity (PSR sort gate)” value does the source give for “QVQLVESGGGLVQAAGSLRLSCAASGSIFLSYAMGWYRQAPGKERELVAAITTDGGTNYADSVKGRFTISRDNAKNTVYLQMNSLKPEDSAVYYCAADSDPIPLIDYTLPMDYWGQGTQVTVSS” here?
A: low polyreactivity

Q: Which “polyreactivity (PSR sort gate)” value does the source give for “QVQLVESGGGLVQAAGSLRLTCAASGRTFYDNVKGWYRQAPGKERELVAAISSGGSTNYADSVKGRFTISRDNAKNTVYLQMNSLKPEDTAVYYCATTGGGGWAYEYWGQGTQVTVSS” here?
A: low polyreactivity

Q: Which “polyreactivity (PSR sort gate)” value does the source give for “QVQLVESGGGLVQAARSLRLSCAASGRIFNYYAMGWYRLAPGKERELVAAINSGGSTYADSVKGRFTISRDNAKNTVYLPMNSLKPEDTAVYYCAKDGQLQSGRERPSGYDHWGQGTQVTVSS” here?
A: low polyreactivity

Q: Which “polyreactivity (PSR sort gate)” value does the source give for “QVQLVESGGGLVQAGARLRLSCAASGSILPTNAMGWYRQAPGKERELVASITYNGGRTSYADSVKWRFTISRDNAKNTVYLQMNSLKPEDTAVYYCAARVWYQGYKSMGYWGQGTQVPVSS” here?
A: high polyreactivity

Q: With “QVQLVESGGGLVQAGASLRISCAASGRIFGRNAMGWYRQEPGIEREFVARIRTSGGSTYNADSVKGRFTISRDNAKNTVYLQMNSLKPEDTAVYYCAAAVYTSARGYDYWGQGTQVTLSS” as the sequence, how does the “polyreactivity (PSR sort gate)” value read?
A: high polyreactivity

Q: Which “polyreactivity (PSR sort gate)” value does the source give for “QVQLVESGGGLVQAGASLRLICAASGYTSSGYAMGRYRHAPGKERELVAAISADGGSTYYADSVKGRFTISRDNAKNTVYLQMNSLKPEDTAVYYCAKYTYPYTPYSWWYDYWGQGTQVTVSS” here?
A: low polyreactivity

Q: With “QVQLVESGGGLVQAGASLRLSCAASGFIFNQYAMGWYRQAPGKERELVAGITWRGGRTYYADSVKGRFTISRDNAKNTVYLQMNSLKPEDTAVYYCAADVAHYNGGEYYYWGQGTQVTVSS” as the sequence, how does the “polyreactivity (PSR sort gate)” value read?
A: high polyreactivity

Q: For “QVQLVESGGGLVQAGASLRLSCAASGGIFDLYAMGWYRQAPGKERELVAAITRSGSSTFYADSVKGRFTISRDNAKNTVYLQMNSLKPEDSAVYYCNARYCWYGTYGGDYWGQGTQVTVSS”, which “polyreactivity (PSR sort gate)” value is on record?
A: low polyreactivity

Q: With “QVQLVESGGGLVQAGASLRLSCAASGIIFYANAMGWYRQAPGTERELVAAITFSGGSTYYADSVKGRFTISRDNAKNTVYLQMNSLKPEDTAVYYCAADKRFIPPHPHPLEFDYWGQGTQVTVSS” as the sequence, how does the “polyreactivity (PSR sort gate)” value read?
A: low polyreactivity

Q: For “QVQLVESGGGLVQAGASLRLSCAASGITLYLYDMGWYRQAPGKERELVASITSDGSTDYADSVKGRFTISRDNAKNTVFLQMNSLKPEDTAVYYCIARVTYSWYRFGRSGDDSWGQGSQVTVSS”, which “polyreactivity (PSR sort gate)” value is on record?
A: low polyreactivity

Q: Which “polyreactivity (PSR sort gate)” value does the source give for “QVQLVESGGGLVQAGASLRLSCAASGRIFHHNVMGWYIQAPGKERELVAAISQSGGSTYYADSVKGRFTISRDNAKNTVYLQMNSLKPEDTAVYYCNDGAAGRRYNYWGQGTQVTVSS” here?
A: low polyreactivity

Q: With “QVQLVESGGGLVQAGASLRLSCAASGRTFTQYAMGWYRQAPGKERELVAAISRSGGTTYYADSVKGRFTISRENAKNTVYLQMNSLKPEDTAVYYCAARWWYRYNYDYWGQGTQVTVSS” as the sequence, how does the “polyreactivity (PSR sort gate)” value read?
A: high polyreactivity

Q: For “QVQLVESGGGLVQAGASLRLSCAASGRTFYQNGMGWYRQAPGKERELVAVISSGGNTDYADSVKGRFTMSRDNAKNTVYLQMNSLKPEDTAVYYCNADVRPAYTYDYWGQGTQVTVSS”, which “polyreactivity (PSR sort gate)” value is on record?
A: low polyreactivity

Q: Which “polyreactivity (PSR sort gate)” value does the source give for “QVQLVESGGGLVQAGASLRLSCAASGSIFDPYAMGWYRQAPGKERQLVAAITYSVGGTTYYADSVKGRFTISRDNAKNTVYLQMNSLKPEDTAVYYCAAEWWGTPFDYWGQGTQVTVSS” here?
A: high polyreactivity

Q: For “QVQLVESGGGLVQAGASLRLSCAASGSISKSYAMGWYRQAPGKERELVAAISSRGGSTYADSVKGRFTISRDNAKNTVYLQMNSLKPEDTAVYYCAATNYGTFWGGQSERYDYWGQGTQVTVSS”, which “polyreactivity (PSR sort gate)” value is on record?
A: low polyreactivity

Q: For “QVQLVESGGGLVQAGASLRLSCAASGSNFWFYAMGWYRQAPGKERELVAVISNSGSTYYADSVKGRFTFSRDNAQNTVYLQMNSLKAEDTAVYYCNKDGGGDSYWYDYWGQGTQVTVSS”, which “polyreactivity (PSR sort gate)” value is on record?
A: low polyreactivity

Q: Which “polyreactivity (PSR sort gate)” value does the source give for “QVQLVESGGGLVQAGASLRLSCAASGSTFYIYAMGWYRQAPGKERELVAGISSGSTYYADSVKGRFTISRDNAKNTVYLQMNSLKPEVTAVYYCAVDSYYFLKDPISYGLYYYWGQGTQVTVSS” here?
A: low polyreactivity

Q: With “QVQLVESGGGLVQAGASLRLSCAASGSTQGWYAMGRYRQAPGKERELVAAISWSGSSTYYADSVKGRFTISRDTAKNTVYLQMNSLKPEDTAVYYCATTSSEVGELRICDYWGQGTQVTVSS” as the sequence, how does the “polyreactivity (PSR sort gate)” value read?
A: low polyreactivity

Q: For “QVQLVESGGGLVQAGASLRLSCAGSGLIFTTYAMGWYRQAAGKERELVADINSDGSTYYADSVKGRFTISRDNAKNTVYLQMNSLKPEDTAVYYCAKDYVHQYGVYKVWANNYNYWGQGTQVTVSS”, which “polyreactivity (PSR sort gate)” value is on record?
A: low polyreactivity

Q: With “QVQLVESGGGLVQAGASLRLSCAPSGRIFGPNTMGWSRQAPGKEREVVAAITRRGGSTYYADSVKGRFTISRDNAKNTVYLQMNSLKPEDTAVYYCAAVGQKRSLGFSWGQGTQVTVSS” as the sequence, how does the “polyreactivity (PSR sort gate)” value read?
A: low polyreactivity

Q: Which “polyreactivity (PSR sort gate)” value does the source give for “QVQLVESGGGLVQAGASLRLSRAASGLIFYRYAMGLYRPAPGKERELVAAITSGGSTYYADSVKGRFTISRDNAKNTVYLQMNSLKPEDTAVYYCAAFYVPTYYYSPYGYWGQGTQVTVSS” here?
A: high polyreactivity

Q: Which “polyreactivity (PSR sort gate)” value does the source give for “QVQLVESGGGLVQAGCILRLSCAASGRIFNYYTMGWYRQAPGKEMELVAAITRTGGNTYYADSVKGRFTISRDNAKNTVYLKMNSLEPEDTAVYDCNVVWLNQREYYYWGQGTHVTVSS” here?
A: high polyreactivity

Q: Which “polyreactivity (PSR sort gate)” value does the source give for “QVQLVESGGGLVQAGCRLRLSCAASGRTSPRYTMGWYRQAHGKERELVASITVSDGSTYYADSVKGRFTISRDNAKNTVYLQMNSLKPEDTAVYYCARPGYWYRYISTSKLHYYWGQGTQETVSS” here?
A: low polyreactivity

Q: Which “polyreactivity (PSR sort gate)” value does the source give for “QVQLVESGGGLVQAGCSHSLSCAASGSIFWNNAIGSFRQAPVKEREFVAGITGRGGSTYYADSVKGRFTISRDNAKNTVYLQMNSLKPEDTEVYYCATRYLVYRGKYDYWGQGTQVTVSS” here?
A: high polyreactivity

Q: With “QVQLVESGGGLVQAGCSLRLRSAASGSIFSGYAMGWYRQAPWKERELDAVISSTGDSTYYADSVKGRFTISRDYAKNTVYLQMNSLKPEDTAVYYCAAYHGPWKWTTRYGYWGQGTQVTVSS” as the sequence, how does the “polyreactivity (PSR sort gate)” value read?
A: low polyreactivity

Q: With “QVQLVESGGGLVQAGCSLRLSCAASGFIFDDYDMGWYRQAPGKERELVAAISWSGGSTYYADSVKGRFTISRDNAKNTVYLQMNSLKPEDTAVFYCNADYYRSRYDYWGQGTQVTVSS” as the sequence, how does the “polyreactivity (PSR sort gate)” value read?
A: high polyreactivity

Q: Which “polyreactivity (PSR sort gate)” value does the source give for “QVQLVESGGGLVQAGCSLRLSCAASGGTFYANAKGRYRQAPGIVRELVAAITSGGSTNYADSVKGRFTISRDNAKNTVYLEINSLKPEDTAVYYCNASAQRRYWHSYFRRYDYWGQGTQVTVSS” here?
A: low polyreactivity

Q: Which “polyreactivity (PSR sort gate)” value does the source give for “QVQLVESGGGLVQAGCSLRLSCAASGITFYGNAMGSYRQAPGKERELVAAISRRGGSTYYADSVKGRFTSSRDNAKNSVYLQMISLKPEDTAVYYCAARYYSWSFRFDYWGQGTQLTVSS” here?
A: high polyreactivity

Q: Which “polyreactivity (PSR sort gate)” value does the source give for “QVQLVESGGGLVQAGCSLRLSCAASGRIFGTNDMGWYRQAPGKERELVAAINGSDSSTYYADSVKGRFTISRDNAKNTVYFQMNSLKPEDTAVYYCNADWSGAPERSTDGYDYWGQGTQVTVSS” here?
A: low polyreactivity

Q: With “QVQLVESGGGLVQAGCSLRLSCAASGRIFLVNAMGWYRQAPGKERELVAAISYRSGRTYYADSVKGRFTISRDNAKNTVYLQMNSLKPEDTAVYYCAAYTNVADMEYWGQGTQVTVSS” as the sequence, how does the “polyreactivity (PSR sort gate)” value read?
A: high polyreactivity

Q: With “QVQLVESGGGLVQAGCSLRLSCAASGRIFNDYAMGWYRQAPGKERELVAGISRRGGSTSYADSVKGRFTISRDNAKNTDYLQMNSQKAEDTAVYYCNADYWYDYYSTEYDYWGQGTQVTVSS” as the sequence, how does the “polyreactivity (PSR sort gate)” value read?
A: low polyreactivity

Q: Which “polyreactivity (PSR sort gate)” value does the source give for “QVQLVESGGGLVQAGCSLRLSCAASGRIFWVNAMGWYRQAPGKERELVAVISSGGSTHYADSVKGRFTISRDNAKYTVSLQMNSLKPEDTAGYYCAADRYYVGYYYWGQGTQVTVSS” here?
A: low polyreactivity

Q: For “QVQLVESGGGLVQAGCSLRLSCAASGRIFYLYTLGWYRQAPGKERELVAAITRAGRTYYADSVKGRFTISRDNAKNTFYLQMNSLKPEDTGVYYCAAAFLSRVQGYDSWGQGTQVTVSS”, which “polyreactivity (PSR sort gate)” value is on record?
A: high polyreactivity

Q: With “QVQLVESGGGLVQAGCSLRLSCAASGRTFCYNSMGLYRQAPGKERELVAAISTSGGSTYYADSVKGRFTISRDNAKNTVYLQMNSLKPEDSAVYSCAADSHRSFSLYAYDSWGLGTQVTVSS” as the sequence, how does the “polyreactivity (PSR sort gate)” value read?
A: low polyreactivity

Q: For “QVQLVESGGGLVQAGCSLRLSCAASGRTFGSYAMGWYRQAPGKERDLVAGITWRDGSTYYADSVKGRFTISRDNAKNTVYFQMNSLKPEDTAVYYCDKEAVRYYLFGMEYWGQGNQVTVSS”, which “polyreactivity (PSR sort gate)” value is on record?
A: low polyreactivity
